Paper PMC4538832, “Structures of the T. brucei kRNA editing factor MRB1590 reveal unique RNA-binding pore motif contained within an ABC-ATPase fold” (Nucleic Acids Research, 2015)

Molecular target: the molecule itself
Assay: SEC; Superdex 200; 5 mg/ml protein; 20 mM Tris-HCl pH 7.5, 300 mM NaCl, 5% glycerol; elution volume compared with standard proteins

B1: MRB1590(10–668) (domain or fragment, T. brucei, UniProt Q57ZF2 10-668, looked up)
chain: YRGGRGGGRGHSHWHNNAPMERGGHMPSNNEGAAISSGSTGFSPLMDFFHSVEGRNYGELRSLTNETYQISENVRCTFLSIQSDPFAPGSQVRLVCPCTFSLEKVLQTTDLAAANPCRRVAAEDFILRSFHAGYRNGIPRRTSGAVQVLRPSQHVLERSTVGLVKAHQQKSGMQAEIEIFARVKLPGHGRRIDGHGAIDIFYNELVPLLEQCVVGLNEEDLHQHVICVHDQEVLRSNLLGAGYVAFVANGAILPRDAGNSDKPLRDNAVPFQSPKSLECSFTLPHSGKTITGMGLPPGLTLIAGGGFHGKSTLLRALEVGIYNHVPDDGRTYVVVDPTAVKIRAEDRRSVHGVDISPFINNLPFGKTTNFFVTADASGSTSQAANIMEALELGSQLLLLDEDTCATNLMYRDALMQMLVPRAQEPITPFVERVADLSQNHGVSSIMVIGGSGQYFPQARVVLVMNAYQISDCTKEAKEIASNSSLPALNPPGDTASVFIPDVNRCFDPDGSFTTVRRRRGREGTKVSGIGTESIRFSEETIDLSMVEQIVEEGQVNAIAQCLALLYDGEPRIVPEMTTKGGALTQLPSPGGVCEIQRGKFNSNFSSMIAGCCSHQHDKRLELRTPSCYLPRGFTSATRHIEIGAALNRLRTLRTVTAKR
notes: MRB1590, Trypanosoma brucei, residues 10-668 (N-terminal truncation of the full length protein); also called MRB1590–AMP–PNP complex; MRB1590-ADP, crystal form 2 (with poly-U); source: E. coli C41(DE3), purified (nickel-nitrilotriacetic acid column)
For B1, the “stoichiometry N” value was 2.
